B1: N50 (synthetic construct) (protein)
chain: MSMSTITNHMPTAELQALDAAHHMHPFSTNNELAEEGVRVITRAKGVWLTDSEGEEILDAMAGLWCVNIGYGRDELAEVAARQMRELPYYNTFFKTTHVPAIALAQKLAELAPGDLNHVFFAGGGSEANDTNIRMVRTYWAEKGKPEKNVIISRKNAYHGSTVGSASLGGMAGMHAQGGIPIPDIHHINQPNWWAEGRPGDTGMTPEEFGLARARELEEAILELGEDRVAAFIAEPVQGAGGVIVAPDTYWPEIQRICDKYEILLIADEVICGFGRTGNWFGSQTMGIRPHIMTIAKGLSSGYAPIGGSIVCDEVAEVIIGGKCEFNHGYTYSGHPVAAAVALENLRILEEENIIDHVRNVAAPYLKEKWEALTDHPLVGEAKIVGMMGSIALTPDKATRAKFASEPGTIGYICRERCFANNLVMRHVGDRMIISPPLVITPEEIDEMFVRIRKSLDEAHAEILRQGLMKAAG
notes: pET22b(+), E. coli BL21(DE3), Ni-NTA purified
B2: N49 (synthetic construct) (protein)
chain: MSMSTITNHMPTAELQALDAAHHMHPFTTNNELAEKGARVITRAKGVWLTDSEGEEILDAMAGLWCVNIGYGRDELAEVAARQMRELPYYNTFFQTTHVPAIALAAKLAELAPGDLNHVFFAGGGSEANDTNIRMVRTYWAEKGKPEKNIIISRKNAYHGSTVGSASLGGMAGMHAQGGLPIPDIHHIDQPNWWAEGRPGDTGMTPEEFGLARARELEQAILELGEDRVAAFIAEPVQGAGGVIVAPDTYWPEIQRICDKYEILLIADEVICGFGRTGNWFGSQTMGIRPHIMTIAKGLSSGYAPIGGSIVCDEVAEVIIGGKCEFNHGYTYSGHPVAAAVALENLRILEEENIIDHVRNVAAPYLKEKWEALTDHPLVGEAKIVGMMGSIALTPDKATRAAFASEPGTVGYICRERCFANNLVMRHVGDRMIISPPLVITPEEIDTLIERARKSLDEAHAELKRQGLMKAAG
notes: as for B1
B3: Sp-ATA (Ruegeria pomeroyi DSS-3) (protein)
chain: MATITNHMPTAELQALDAAHHLHPFSANNALGEEGTRVITRARGVWLNDSEGEEILDAMAGLWCVNIGYGRDELAEVAARQMRELPYYNTFFKTTHVPAIALAQKLAELAPGDLNHVFFAGGGSEANDTNIRMVRTYWQNKGQPEKTVIISRKNAYHGSTVASSALGGMAGMHAQSGLIPDVHHINQPNWWAEGGDMDPEEFGLARARELEEAILELGENRVAAFIAEPVQGAGGVIVAPDSYWPEIQRICDKYDILLIADEVICGFGRTGNWFGTQTMGIRPHIMTIAKGLSSGYAPIGGSIVCDEVAHVIGKDEFNHGYTYSGHPVAAAVALENLRILEEENILDHVRNVAAPYLKEKWEALTDHPLVGEAKIVGMMASIALTPNKASRAKFASEPGTIGYICRERCFANNLIMRHVGDRMIISPPLVITPAEIDEMFVRIRKSLDEAQAEIEKQGLMKSAA
notes: wild type, pET22b(+), E. coli BL21(DE3), Ni-NTA purified (His-tag), homodimer

Key:
purified protein [1] = substrate: C[C@H](N)c1ccccc1; test: purified protein; assay type: biochemical, synthetic construct; settings: co-substrate sodium pyruvate; 5 mM PLP; (S)-PEA 0.1-15 mM
purified protein [2] = substrate: C[C@H](N)c1ccccc1; test: purified protein; assay type: biochemical, Ruegeria pomeroyi; settings: co-substrate sodium pyruvate; 5 mM PLP; (S)-PEA 0.1-15 mM

Protein	Km (purified protein [1])	kcat (purified protein [1])	Km (purified protein [2])	kcat (purified protein [2])
B1	6.22 ± 1.01 mM	0.39 ± 0.03 s⁻¹		
B2	2.02 ± 0.19 mM	1.10 ± 0.03 s⁻¹		
B3			3.64 ± 0.31 mM	6.33 ± 0.19 s⁻¹
